Measured values reported in PMC5805628.

Molecular target: EGFR co-transfected into Q293 cells (UniProt P00533)
Test: co-IP

Substance	amount in the anti-EGFR immunoprecipitate, normalized to wild type TROY
TROY CRD2 (from UniProt Q9NS68 30-423) (receptor)	0.43
TROY CRD3 (from UniProt Q9NS68 30-423) (receptor)	0.83
